Experimental data reported in the supplement of paper PMC10567573.

B1: CDC14A (parent)
chain: LNLAMVYRYCCKLNKKLKSYSLSR
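Note: lentivirally expressed fusions sorted by FACS into six bins by GFP to DsRed ratio, PSI derived from sequencing read proportions per bin multiplied by bin number.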

Variants of: B1
Experiment: protein stability index of a GFP-peptide fusion (GPS, HEK-293T) (PSI 1-6); higher = more stable
Conditions: c terminus: a fixed tail appended
LNLAVVYRYCCKLNKKLKSYSLSR [M5V] gave a protein stability index of 2.54. Work on LNLAEVYRYCCKLNKKLKSYSLSR [M5E] yielded a protein stability index of 3. Variant LNLAQVYRYCCKLNKKLKSYSLSR [M5Q] has a protein stability index of 1.56. LNLADVYRYCCKLNKKLKSYSLSR [M5D] showed a protein stability index of 3.92. Variant LNLAPVYRYCCKLNKKLKSYSLSR [M5P] has a protein stability index of 3.2. Variant LNLAGVYRYCCKLNKKLKSYSLSR [M5G] has a protein stability index of 3.92. For LNLAMVYRYCNKLNKKLKSYSLSR [C11N], the protein stability index was 3.24. For LNLAMVYRYCVKLNKKLKSYSLSR [C11V], the protein stability index was 2.45. For LNLAMVYRYCKKLNKKLKSYSLSR [C11K], the protein stability index was 3. Work on LNLAMVYRYCEKLNKKLKSYSLSR [C11E] yielded a protein stability index of 1.62. LNLAMVYRYCPKLNKKLKSYSLSR [C11P] showed a protein stability index of 1.97. For LNLAMVYRYCIKLNKKLKSYSLSR [C11I], the protein stability index was 3.23. LNLAMVYRYCRKLNKKLKSYSLSR [C11R] showed a protein stability index of 2.64. Variant LNLAMVYRYCGKLNKKLKSYSLSR [C11G] has a protein stability index of 4.89. Variant LNLAMVYRYMCKLNKKLKSYSLSR [C10M] has a protein stability index of 2.89. Variant LNLAMVYRYFCKLNKKLKSYSLSR [C10F] has a protein stability index of 2.71. LNLAMVYRYWCKLNKKLKSYSLSR [C10W] showed a protein stability index of 3.64. LNLAMVYRYYCKLNKKLKSYSLSR [C10Y] gave a protein stability index of 4.25. LNLAMVYRYHCKLNKKLKSYSLSR [C10H] showed a protein stability index of 3.62. LNLAMVYRYICKLNKKLKSYSLSR [C10I] showed a protein stability index of 4.27. Work on LNLAMVYRYNCKLNKKLKSYSLSR [C10N] yielded a protein stability index of 1.95. For LNLAMVYRYRCKLNKKLKSYSLSR [C10R], the protein stability index was 1.59. With LNLAMVYRYQCKLNKKLKSYSLSR [C10Q] the protein stability index was 2.8. In the case of LNLAMVYRYVCKLNKKLKSYSLSR [C10V], the protein stability index is reported as 3.25. With LNLAMNYRYCCKLNKKLKSYSLSR [V6N] the protein stability index was 1.63. LNLAMFYRYCCKLNKKLKSYSLSR [V6F] gave a protein stability index of 5.59. In the case of LNLAMTYRYCCKLNKKLKSYSLSR [V6T], the protein stability index is reported as 2.46. For LNLAMWYRYCCKLNKKLKSYSLSR [V6W], the protein stability index was 3.43. Work on LNLAMIYRYCCKLNKKLKSYSLSR [V6I] yielded a protein stability index of 3.28. For LNLAMSYRYCCKLNKKLKSYSLSR [V6S], the protein stability index was 2.5. Variant LNLAMDYRYCCKLNKKLKSYSLSR [V6D] has a protein stability index of 2.05. For LNLAMYYRYCCKLNKKLKSYSLSR [V6Y], the protein stability index was 2.45. For LNLAMHYRYCCKLNKKLKSYSLSR [V6H], the protein stability index was 2.03. LNLAMAYRYCCKLNKKLKSYSLSR [V6A] gave a protein stability index of 3.5. LNLAMVYPYCCKLNKKLKSYSLSR [R8P] showed a protein stability index of 2.09. LNLAMVYHYCCKLNKKLKSYSLSR [R8H] showed a protein stability index of 4.35. Work on LNLAMVYTYCCKLNKKLKSYSLSR [R8T] yielded a protein stability index of 2.03. In the case of LNLAMVYDYCCKLNKKLKSYSLSR [R8D], the protein stability index is reported as 3.23. LNLAMVYKYCCKLNKKLKSYSLSR [R8K] showed a protein stability index of 2.08. Variant LNLAMVYRYCCKLNKKLKGYSLSR [S19G] has a protein stability index of 2.5. LNLAMVYRYCCKLNKKLKHYSLSR [S19H] showed a protein stability index of 2.3. In the case of LNLAMVYRYCCKLNKKLKKYSLSR [S19K], the protein stability index is reported as 2.19. Variant LNLAMVYRYCCKLNKKLKPYSLSR [S19P] has a protein stability index of 2.75. In the case of LNLAMVYRYCCKLNKKLKLYSLSR [S19L], the protein stability index is reported as 2.5. In the case of LNLAMVYRYCCKLNKKLKNYSLSR [S19N], the protein stability index is reported as 2.8. Work on LNLAMVYRYCCKLNKKLKRYSLSR [S19R] yielded a protein stability index of 3.44. LFLAMVYRYCCKLNKKLKSYSLSR [N2F] showed a protein stability index of 1.04. Work on LLLAMVYRYCCKLNKKLKSYSLSR [N2L] yielded a protein stability index of 2.17. LRLAMVYRYCCKLNKKLKSYSLSR [N2R] gave a protein stability index of 2.39. In the case of LELAMVYRYCCKLNKKLKSYSLSR [N2E], the protein stability index is reported as 3.15. LVLAMVYRYCCKLNKKLKSYSLSR [N2V] showed a protein stability index of 1.82. Work on LNLAMVYRYCCKINKKLKSYSLSR [L13I] yielded a protein stability index of 2.69. Variant LNLAMVYRYCCKPNKKLKSYSLSR [L13P] has a protein stability index of 1.2. For LNLAMVYRYCCKMNKKLKSYSLSR [L13M], the protein stability index was 3.6. With LNLAMVYRYCCKQNKKLKSYSLSR [L13Q] the protein stability index was 3.27. For LNLAMVYRYCCKTNKKLKSYSLSR [L13T], the protein stability index was 2.08. LNLAMVYRYCCKENKKLKSYSLSR [L13E] gave a protein stability index of 2.48. With LNLAMVYRYCCKKNKKLKSYSLSR [L13K] the protein stability index was 1.56. With LNLAMVYRYCCKWNKKLKSYSLSR [L13W] the protein stability index was 1.96. LNLAMVYRYCCKANKKLKSYSLSR [L13A] gave a protein stability index of 2.92. LNLAMVYRYCCKSNKKLKSYSLSR [L13S] showed a protein stability index of 1.8. For LNLAMVYRYCCKLNKLLKSYSLSR [K16L], the protein stability index was 2.13. Work on LNLAMVYRYCCKLNKDLKSYSLSR [K16D] yielded a protein stability index of 2.56. LNLAMVYRYCCKLNKELKSYSLSR [K16E] gave a protein stability index of 1.9. LNLAMVYRYCCKLNKPLKSYSLSR [K16P] showed a protein stability index of 2.42. LNLAMVYRYCCKLNKGLKSYSLSR [K16G] gave a protein stability index of 3.28. LNLAMVYRYCCKLNKMLKSYSLSR [K16M] gave a protein stability index of 2.77. Variant LNLAMVYRYCCKLNKWLKSYSLSR [K16W] has a protein stability index of 2.81. In the case of LNLAMVYRYCCKLNKNLKSYSLSR [K16N], the protein stability index is reported as 2.32. Work on LNLAMVYRYCCKLNKQLKSYSLSR [K16Q] yielded a protein stability index of 2.35. LNLAMVYRYCCKLNKRLKSYSLSR [K16R] gave a protein stability index of 3.33. LNLAMVYRYCCKLNKYLKSYSLSR [K16Y] gave a protein stability index of 2.72. For LNLAMVYRYCCKLNKKLKSYDLSR [S21D], the protein stability index was 2.01. For LNLAMVYRYCCKLNKKLKSYTLSR [S21T], the protein stability index was 2.92. With LNLAMVYRYCCKLNKKLKSYCLSR [S21C] the protein stability index was 3.76. With LNLAMVYRYCCKLNKKLKSYGLSR [S21G] the protein stability index was 2.26. With LNLAMVYRYCCKLNKKLKSYHLSR [S21H] the protein stability index was 2.13. In the case of LNLAMVYRYCCKLNKKLKSYFLSR [S21F], the protein stability index is reported as 2.38. Work on LNLAMVQRYCCKLNKKLKSYSLSR [Y7Q] yielded a protein stability index of 2.71. For LNLAMVPRYCCKLNKKLKSYSLSR [Y7P], the protein stability index was 2.23. For LNLAMVLRYCCKLNKKLKSYSLSR [Y7L], the protein stability index was 3.34. Work on LNLAMVARYCCKLNKKLKSYSLSR [Y7A] yielded a protein stability index of 1.85. Variant LNLAMVNRYCCKLNKKLKSYSLSR [Y7N] has a protein stability index of 2.46. In the case of LNLAMVVRYCCKLNKKLKSYSLSR [Y7V], the protein stability index is reported as 3.72. Work on HNLAMVYRYCCKLNKKLKSYSLSR [L1H] yielded a protein stability index of 2.26. Variant TNLAMVYRYCCKLNKKLKSYSLSR [L1T] has a protein stability index of 2.3. In the case of ENLAMVYRYCCKLNKKLKSYSLSR [L1E], the protein stability index is reported as 3.44. MNLAMVYRYCCKLNKKLKSYSLSR [L1M] gave a protein stability index of 3.23. DNLAMVYRYCCKLNKKLKSYSLSR [L1D] gave a protein stability index of 3.11. With LNLAMVYRYCCKLNTKLKSYSLSR [K15T] the protein stability index was 2.62. In the case of LNLAMVYRYCCKLNQKLKSYSLSR [K15Q], the protein stability index is reported as 4.63. With LNLAMVYRYCCKLNHKLKSYSLSR [K15H] the protein stability index was 3.69. Work on LNLAMVYRYCCKLNEKLKSYSLSR [K15E] yielded a protein stability index of 3.47. In the case of LNLAMVYRYCCKLNLKLKSYSLSR [K15L], the protein stability index is reported as 3.39.
